Experimental data reported in the supplement of paper PMC11246515.
± gives the standard deviation of the averaged measurements.

Test: total protein half-life in vivo (active degradation + dilution); higher = more stable protein
[1] = E. coli NCM3722 delta-clpP delta-lon delta-hslV, growth: N-lim chemostat, doubling time 6 h
[2] = E. coli NCM3722 delta-clpP, growth: N-lim chemostat, doubling time 6 h
[3] = E. coli NCM3722 delta-lon, growth: N-lim chemostat, doubling time 6 h
[4] = E. coli NCM3722 delta-smpB, growth: N-lim chemostat, doubling time 6 h
[5] = wild type E. coli NCM3722, growth: C-lim chemostat, doubling time 3 h
[6] = wild type E. coli NCM3722, growth: C-lim chemostat, doubling time 6 h
[7] = wild type E. coli NCM3722, growth: C-lim chemostat, doubling time 12 h
[8] = wild type E. coli NCM3722, growth: N-lim chemostat, doubling time 6 h
[9] = wild type E. coli NCM3722, growth: N-lim chemostat, doubling time 12 h
[10] = wild type E. coli NCM3722, growth: P-lim chemostat, doubling time 6 h
[11] = wild type E. coli NCM3722, growth: P-lim chemostat, doubling time 12 h
[12] = E. coli NCM3722 delta-hslV, growth: N-lim chemostat, doubling time 6 h

Q: Which “total protein half-life in vivo” value [1] does the source give for “MLKVLLLFVLLIAGIVVGPMIAGHQGYVLIQTDNYNIETSVTGLAIILILAMVVLFAIEWLLRRIFRTGAHTRGWFVGRKRRRARKQTEQALLKLAEGDYQQVEKLMAKNADHAEQPVVNYLLAAEAAQQRGDEARANQHLERAAELAGNDTIPVEITRVRLQLARNENHAARHGVDKLLEVTPRHPEVLRLAEQAYIRTGAWSSLLDIIPSMAKAHVGDEEHRAMLEQQAWIGLMDQARADNGSEGLRNWWKNQSRKTRHQVALQVAMAEHLIECDDHDTAQQIIIDGLKRQYDDRLLLPIPRLKTNNPEQLEKVLRQQIKNVGDRPLLWSTLGQSLMKHGEWQEASLAFRAALKQRPDAYDYAWLADALDRLHKPEEAAAMRRDGLMLTLQNNPPQ [P0ACB7]” here?
A: 5.91 ± 0.1 h

Q: And the “total protein half-life in vivo” value [2]?
A: 6.4161 ± 0.0029 h

Q: And the “total protein half-life in vivo” value [3]?
A: 6.1592 ± 0.004 h

Q: What about the “total protein half-life in vivo” value [4] of the same sequence?
A: 5.98 ± 0.073 h

Q: What about the “total protein half-life in vivo” value [5] of the same sequence?
A: 3.13 ± 0.12 h

Q: What about the “total protein half-life in vivo” value [6] of the same sequence?
A: 6.13 ± 0.2 h

Q: What about the “total protein half-life in vivo” value [7] of the same sequence?
A: 13.2 ± 0.85 h

Q: What about the “total protein half-life in vivo” value [8] of the same sequence?
A: 6.64 ± 0.65 h

Q: What about the “total protein half-life in vivo” value [9] of the same sequence?
A: 12.6 ± 0.5 h

Q: And the “total protein half-life in vivo” value [10]?
A: 6.1 ± 0.41 h

Q: And the “total protein half-life in vivo” value [11]?
A: 12.6 ± 0.95 h

Q: With “MSIVVKNNIHWVGQRDWEVRDFHGTEYKTLRGSSYNSYLIREEKNVLIDTVDHKFSREFVQNLRNEIDLADIDYIVINHAEEDHAGALTELMAQIPDTPIYCTANAIDSINGHHHHPEWNFNVVKTGDTLDIGNGKQLIFVETPMLHWPDSMMTYLTGDAVLFSNDAFGQHYCDEHLFNDEVDQTELFEQCQRYYANILTPFSRLVTPKITEILGFNLPVDMIATSHGVVWRDNPTQIVELYLKWAADYQEDRITIFYDTMSNNTRMMADAIAQGIAETDPRVAVKIFNVARSDKNEILTNVFRSKGVLVGTSTMNNVMMPKIAGLVEEMTGLRFRNKRASAFGSHGWSGGAVDRLSTRLQDAGFEMSLSLKAKWRPDQDALKLCREHGREIARQWALAPLPQSTVNTVVKEETSATTTADLGPRMQCSVCQWIYDPAKGEPMQDVAPGTPWSEVPDNFLCPECSLGKDVFEELASEAK” as the sequence, how does the “total protein half-life in vivo” value [1] read?
A: 5.32 ± 0.78 h

Q: What about the “total protein half-life in vivo” value [2] of the same sequence?
A: 3.24 h

Q: And the “total protein half-life in vivo” value [4]?
A: 1.57 h

Q: And the “total protein half-life in vivo” value [8]?
A: 2.75 h

Q: What about the “total protein half-life in vivo” value [11] of the same sequence?
A: 10.1 ± 7.1 h

Q: With “MKEVEKNEIKRLSDRLDAIRHQQADLSLVEAADKYAELEKEKATLEAEIARLREVHSQKLSKEAQKLMKMPFQRAITKKEQADMGKLKKSVRGLVVVHPMTALGREMGLQEMTGFSKTAF [P0ADK8]” as the sequence, how does the “total protein half-life in vivo” value [1] read?
A: 6.16 ± 1.2 h

Q: And the “total protein half-life in vivo” value [2]?
A: 4.37 ± 0.35 h

Q: What about the “total protein half-life in vivo” value [12] of the same sequence?
A: 4.65 ± 0.78 h

Q: And the “total protein half-life in vivo” value [3]?
A: 5.34 ± 1.4 h

Q: What about the “total protein half-life in vivo” value [4] of the same sequence?
A: 4.26 ± 0.64 h

Q: And the “total protein half-life in vivo” value [6]?
A: > 8 h

Q: What about the “total protein half-life in vivo” value [7] of the same sequence?
A: 9.91 ± 3.4 h

Q: What about the “total protein half-life in vivo” value [8] of the same sequence?
A: 3.91 ± 0.96 h

Q: And the “total protein half-life in vivo” value [9]?
A: 6.76 ± 1.6 h

Q: What about the “total protein half-life in vivo” value [10] of the same sequence?
A: 3.5 ± 0.53 h

Q: What about the “total protein half-life in vivo” value [11] of the same sequence?
A: 6.29 ± 0.48 h

Q: For “MESPLGSDLARLVRIWRALIDHRLKPLELTQTHWVTLHNIHQLPPDQSQIQLAKAIGIEQPSLVRTLDQLEEKGLISRQTCASDRRAKRIKLTEKAEPLISEMEAVINKTRAEILHGISAEELEQLITLIAKLEHNIIELQAKG [P0A8W2]”, which “total protein half-life in vivo” value [1] is on record?
A: 5.958 ± 0.04 h

Q: And the “total protein half-life in vivo” value [2]?
A: 5.81 ± 0.18 h

Q: And the “total protein half-life in vivo” value [12]?
A: 5.88 ± 0.54 h

Q: What about the “total protein half-life in vivo” value [4] of the same sequence?
A: 5.79 ± 0.084 h

Q: And the “total protein half-life in vivo” value [5]?
A: 3.38 ± 0.4 h

Q: And the “total protein half-life in vivo” value [6]?
A: 5.19 ± 0.19 h

Q: What about the “total protein half-life in vivo” value [7] of the same sequence?
A: 11.38 ± 0.033 h

Q: And the “total protein half-life in vivo” value [8]?
A: 5.01 ± 0.34 h

Q: What about the “total protein half-life in vivo” value [9] of the same sequence?
A: 11 ± 2.7 h

Q: And the “total protein half-life in vivo” value [10]?
A: 4.64 ± 1.1 h

Q: And the “total protein half-life in vivo” value [11]?
A: 9.76 ± 0.57 h

Q: For “MNKYTINDITRASGGFAMLAVDQREAMRMMFAAAGAPAPVADSVLTDFKVNAAKALSPYASAILVDQQFCYRQVVEQNAIAKSCAMIVAADEFIPGNGIPVDSVVIDRKINPLQIKQDGGKALKLLVLWRSDEDAQQRLDMVKEFNELCHSHGLVSIIEPVVRPPRRGDKFDREQAIIDAAKELGDSGADLYKVEMPLYGKGPQQELLCASQRLNDHINMPWVILSSGVDEKLFPRAVRVAMTAGASGFLAGRAVWASVVGLPDNELMLRDVCAPKLQQLGDIVDEMMAKRR”, which “total protein half-life in vivo” value [1] is on record?
A: 5.2 ± 0.61 h

Q: And the “total protein half-life in vivo” value [2]?
A: 4.38 ± 0.96 h

Q: What about the “total protein half-life in vivo” value [12] of the same sequence?
A: 4.42 ± 0.41 h

Q: And the “total protein half-life in vivo” value [3]?
A: 5.52 ± 0.98 h

Q: And the “total protein half-life in vivo” value [4]?
A: 4.09 ± 0.52 h

Q: And the “total protein half-life in vivo” value [5]?
A: 2.93 ± 0.18 h

Q: What about the “total protein half-life in vivo” value [6] of the same sequence?
A: 6.51 ± 1.8 h

Q: And the “total protein half-life in vivo” value [7]?
A: 8.63 ± 1.5 h

Q: What about the “total protein half-life in vivo” value [8] of the same sequence?
A: 4.19 ± 0.58 h

Q: What about the “total protein half-life in vivo” value [9] of the same sequence?
A: 6.3 ± 0.93 h

Q: What about the “total protein half-life in vivo” value [10] of the same sequence?
A: 5.05 ± 0.15 h

Q: What about the “total protein half-life in vivo” value [11] of the same sequence?
A: 10.2 ± 0.62 h

Q: What does the source list for “MKFQAIVLASFLVMPYALADDQGGLKQDAAPPPPHAIEDGYRGTDDAKKMTVDFAKTMHDGASVSLRGNLISHKGEDRYVFRDKSGEINVVIPAAVFDGREVQPDQMINISGSLDKKSAPAVVRVTHLQK”?
A: total protein half-life in vivo [1]: 3.34 ± 0.2 h; total protein half-life in vivo [2]: 3.77 ± 0.45 h; total protein half-life in vivo [12]: 5.37 ± 0.2 h; total protein half-life in vivo [5]: 3.02 ± 0.51 h; total protein half-life in vivo [6]: 5.22 ± 0.22 h; total protein half-life in vivo [7]: 6.52 ± 1.8 h; total protein half-life in vivo [8]: 5.18 ± 0.37 h; total protein half-life in vivo [9]: 8.94 ± 0.26 h; total protein half-life in vivo [10]: 4.33 ± 0.9 h; total protein half-life in vivo [11]: 7.82 ± 2.9 h

Q: For “MTNPLLTPFELPPFSKILPEHVVPAVTKALNDCRENVERVVAQGAPYTWENLCQPLAEVDDVLGRIFSPVSHLNSVKNSPELREAYEQTLPLLSEYSTWVGQHEGLYKAYRDLRDGDHYATLNTAQKKAVDNALRDFELSGIGLPKEKQQRYGEIATRLSELGNQYSNNVLDATMGWTKLVTDEAELAGMPESALAAAKAQAEAKELEGYLLTLDIPSYLPVMTYCDNQALREEMYRAYSTRASDQGPNAGKWDNSKVMEEILALRHELAQLLGFENYAFKSLATKMAENPQQVLDFLTDLAKRARPQGEKELAQLRAFAKAEFGVDELQPWDIAYYSEKQKQHLYSISDEQLRPYFPENKAVNGLFEVVKRIYGITAKERKDVDVWHPDVRFFELYDENNELRGSFYLDLYARENKRGGAWMDDCVGQMRKADGSLQKPVAYLTCNFNRPVNGKPALFTHDEVITLFHEFGHGLHHMLTRIETAGVSGISGVPWDAVELPSQFMENWCWEPEALAFISGHYETGEPLPKELLDKMLAAKNYQAALFILRQLEFGLFDFRLHAEFRPDQGAKILETLAEIKKLVAVVPSPSWGRFPHAFSHIFAGGYAAGYYSYLWADVLAADAFSRFEEEGIFNRETGQSFLDNILSRGGSEEPMDLFKRFRGREPQLDAMLEHYGIKG”, which “total protein half-life in vivo” value [1] is on record?
A: 4.42 ± 0.21 h

Q: And the “total protein half-life in vivo” value [2]?
A: 4.18 ± 0.052 h

Q: What about the “total protein half-life in vivo” value [12] of the same sequence?
A: 4.03 ± 0.15 h

Q: And the “total protein half-life in vivo” value [3]?
A: 3.74 ± 0.18 h

Q: And the “total protein half-life in vivo” value [4]?
A: 3.55 ± 0.062 h

Q: What about the “total protein half-life in vivo” value [5] of the same sequence?
A: 2.795 ± 0.023 h

Q: And the “total protein half-life in vivo” value [6]?
A: 5.17 ± 0.21 h

Q: What about the “total protein half-life in vivo” value [7] of the same sequence?
A: 8.7 ± 0.94 h

Q: What about the “total protein half-life in vivo” value [8] of the same sequence?
A: 3.68 ± 0.23 h

Q: What about the “total protein half-life in vivo” value [9] of the same sequence?
A: 5.67 ± 0.55 h

Q: And the “total protein half-life in vivo” value [10]?
A: 5.1797 ± 0.00065 h

Q: What about the “total protein half-life in vivo” value [11] of the same sequence?
A: 9.96 ± 1.1 h

Q: For “MGKTNDWLDFDQLAEEKVRDALKPPSMYKVILVNDDYTPMEFVIDVLQKFFSYDVERATQLMLAVHYQGKAICGVFTAEVAETKVAMVNKYARENEHPLLCTLEKA [P0A8Q6]”, which “total protein half-life in vivo” value [1] is on record?
A: 5.9 ± 0.35 h

Q: What about the “total protein half-life in vivo” value [12] of the same sequence?
A: 0.855 ± 0.013 h

Q: What about the “total protein half-life in vivo” value [3] of the same sequence?
A: 1.05 h

Q: And the “total protein half-life in vivo” value [5]?
A: 0.522 h

Q: What about the “total protein half-life in vivo” value [6] of the same sequence?
A: 0.628 h

Q: What about the “total protein half-life in vivo” value [7] of the same sequence?
A: 0.456 h

Q: And the “total protein half-life in vivo” value [11]?
A: 0.869 h
